For data set [1], the target named is GORK(CA-ANK)_(AKT1) chimeric channel (Arabidopsis thaliana | Arabidopsis).
Data set [2] concerns the molecule itself. As to the kind of experiment: cryo-EM structure; single-particle cryo-EM of purified GORK at 4 mg/ml; SEC buffer 0.02% GDN, 150 mM KCl, 20 mM Tris pH 8.0, 2 mM DTT; consensus map and five maps from ANK-focused 3D classification.

We go through two molecules from article PMC12318183, “Structure reveals a regulation mechanism of plant outward-rectifying K^+ channel GORK by structural rearrangements in the CNBD–Ankyrin bridge” (Proceedings of the National Academy of Sciences of the …, 2025).

As to “CIPK23/CBL1 protein kinase complex (from UniProt Q93VD3 1-482; O81445 1-213)”, the outward K+ current of GORK(CA-ANK) (AKT1) in Xenopus oocytes with coexpressed CIPK23/CBL1 against without, two-electrode voltage clamp, at 70 mV in data set [1] amounted to 3 fold.

B1: GUARD CELL OUTWARD-RECTIFYING K+ (GORK) channel (natural protein, Arabidopsis thaliana)
chain: GRLRRRQEIIDHEEEESNDDVSSRRGKLSLAETFRWLDSSEHRRIETDGHNDYKYIIHPKNRWYKAWEMFILVWAIYSSLFTPMEFGFFRGLPERLFVLDIVGQIAFLVDIVLQFFVAYRDTQTYRTVYKPTRIAFRYLKSHFLMDFIGCFPWDLIYKASGKHELVRYLLWIRLFRVRKVVEFFQRLEKDTRINYLFTRILKLLFVEVYCTHTAACIFYYLATTLPPENEGYTWIGSLKLGDYSYENFREIDLWKRYTTALYFAIVTMATVGYGDIHAVNLREMIFVMIYVSFDMVLGAYLIGNITALIVKGSNTERFRDKMNDLISFMNRKKLGRDLRSQITGHVRLQYDSHYTDTVMLQDIPASIRAKIAQLLYLPYIKKVPLFKGCSTEFINQIVIRLHEEYFLPGEVITEQGNVVDHLYFVCEGLLEALVTKTDGSEESVTLLGPHTSFGDISIICNISQPFTVRVCELCHLLRLDKQSFSNILEIYFHDGRTILNNIMEEKESNDRIKKLESDIVIHIGKQEAELALKVNSAAFQGDFYQLKSLIRSGADPNKTDYDGRSPLHLAACRGYEDITLFLIQEGVDVNLKDKFGHTPLFEAVKAGQEGVIGLLVKEGASFNLEDSGNFLCTTVAKGDSDFLKRLLSSGMNPNSEDYDHRTPLHVAASEGLFLMAKMLVEAGASVISKDRWGNSPLDEARLCGNKKLIKLLEDVKNAQSSIYPSSLRELQEERIERRKCTVFPFHPQEAKEERSRKHGVVVWIPSNLEKLIVTAAKELGLSDGASFVLLSEDQGRITDIDMISDGHKLYMISDTTDQT
notes: GORK outward-rectifying K+ channel, Arabidopsis thaliana, UniProt Q94A76; optimised synthetic coding DNA; positions counted from the initial Met; the model covers about residues 50-720; No step that removes a tag is described; Solubilised in LMNG/CHS, kept in GDN; also called GORKWT1; GORKWT2
With B1, the stoichiometry N (usually a count of units in the complex or per binding partner) in data set [2] worked out at 4.
